The target in experiment [1] is HAdV-19c (virus particle) (human adenovirus 19c (HAdV-19c)). Nature of the experiment: co-sedimentation; as a1 but one concentration, 20 µM HD5; HD5 bound expressed as percent of HD5 bound to HAdV-5 in parallel samples.
Experiment [2] deals with HAdV-25p (virus particle) (human adenovirus 25 (HAdV-25p)). Described as above.
In experiment [3] the target is HAdV-51p (virus particle) (human adenovirus 51 (HAdV-51p)). The description is as above.
The target of experiment [4] is HAdV-7p (virus particle) (human adenovirus 7 (HAdV-7p)). Described as above.
The target in experiment [5] is Ad5.eGFP, replication-defective HAdV-5 vector (virus particle) (human adenovirus 5 (HAdV-5)) (UniProt P04133). Nature of the experiment: co-sedimentation; equilibrium-binding assay; HD5 serially diluted in PBS and mixed with 5 µg purified virus, 1 h on ice; virus/HD5 complex separated from unbound HD5 by ultracentrifugation on a discontinuous nycodenz gradient (50 mM NaCl, 20 mM HEPES pH 7.4, 4°C); bound HD5 quantified after SDS-PAGE (Deep Purple stain) against a standard curve; apparent affinity, no estimate of non-specific binding.

In the case of human alpha-defensin HD5 (peptide), the percent of the amount of HD5 bound to HAdV-5 in experiment [1] came out at 32.5%; in experiment [2], 3.3%; in experiment [3], 24.6%; in experiment [4] it was 69.3%. The Kd in experiment [5] is 14.5 µM. Moreover, the stoichiometry N (HD5 molecules per virus particle) in experiment [5] was 2750.

These data come from PMC2891831, “Insight into the Mechanisms of Adenovirus Capsid Disassembly from Studies of Defensin Neutralization” (PLoS Pathogens, 2010).
